Measured values taken from patent US20050214813A1.

These binders were tested against Aβ1-28 consisting of 28 amino acid residues from the N-terminus of Aβ (UniProt P05067) (assay: cell-based or functional assay).
Aβ1-28 consisting of 28 amino acid residues from the N-terminus of Aβ, sequence (P05067 672-699): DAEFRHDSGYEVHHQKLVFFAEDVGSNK

Binder | Fluorescence Intensity (thioflavin-T, Aβ1-28 aggregation after 24 hours, relative to the Aβ40-1 control taken as 100%) [%]
PSEC0129 (supernatant containing the product expressed from the clone of SEQ ID NO: 3) (protein) AFHASAVGLRSSDEQKQQPPNSFSQQHSETQGAEKPDPESSHSPPRYTDQGGEEEEDYESEEQLQHRILTAALEFVPAHGWTAEAIAEGAQVCIGEGGAT | 24
PSEC0220 (supernatant containing the product expressed from the clone of SEQ ID NO. 5) (protein) LWWAVGSPLVMDPTSICRKARRLAGRQAELCQAEPEVVAELARGARLGVRECQFQFRFRRWNCSSHSKAFGRILQQDIRETAFVFAITAAGASHAVTQACSMGELLQCGCQAPRWRAPPRPSGLPGTPGPPGPAGSPEGSAAWEWGGCGDDVDFGDEKSRLFMDARHKRGRGDIRALVQLHNNEAGRLAVRSHTRTECKCHGLSGSCALRTCWQKLPPFREVGARLLERFHGASRVMGTNDGKALLPAVRTLKPPGRADLLYAADSPDFCAPNRRTGSPGTRGRACNSSAPDLSGCDLLCCGRGHRQESVQLEENCLCRFHWCCVVQCHRCRVRKELSLCL | 250

Next, values leading:

Fluorescence Intensity (thioflavin-T, Aβ1-28 aggregation after 24 hours, relative to the Aβ40-1 control taken as 100%) [%] | Binder
460 | PSEC0256 (supernatant containing the product expressed from the clone of SEQ ID NO. 9) (protein) MAGHSMVLVEILDVNDNVPEVMVTSLSLPVQEDAQVGTVIALISVSDRDSGANGQVICSLTPHVPFKLVSTYKNYYSLVLDSALDRESVSAYELVVTARDGGSPSLWATARVSVEVADVNDNAPAFAQPEYTVFVKENNPPGCHIFTVSAWDADAQKNALVSYSLVERRVGEHALSSYVSVHAESGKVYALQPLDHEELELLQFQVSARDAGVPPLGSNVTLQVFVLDENDNAPALLATPAGSAGGAVSELVPRSVGAGHVVAKVRAVDADSGYNAWLSYELQPAAVGAHIPFHVGLYTGEISTTRILDEADAPRHRLLVLVKDHGEPALTSTATVLVSLVENGQAPKTSSRASVGAVDPEAALVDINVYLIIAICAVSSLLVLTLLLYTALRCSAPPTVSRCAPGKPTLVCSSAVGSWSYSQQRRQRVCSAESPPKTDLMAFSPSLQLSREDCLNPPSEPRQPNPDWRYSASLRAGMHSSVHLEEAGILRAGPGGPDQQWPTVSSATPEPEAGEVSPPVGAGVNSNSWTFKYGPGNPKQSGPGELPDKFIIPGSPAIISIRQEPTNSQIDKSDFITFGKKEETKKKKKKKKGNKTQEKKEKGNSTTDNSDQ
16 | PSEC0242 (supernatant containing the product expressed from the clone of SEQ ID NO. 7) (protein) MMGLGNGRRSMKSPPLVLAALVACIIVLGFNYWIASSRSVDLQTRIMELEGRVRRAAAERGAVELKKNEFQGELEKQREQLDKIQSSHNFQLESVNKLYQDEKAVLVNNITTGERLIRVLQDQLKTLQRNYGRLQQDVLQFQKNQTNLERKFSYDLSQCINQMKEVKEQCEERIEEVTKKGNEAVASRDLSENNDQRQQLQALSEPQPRLQAAGLPHTEVPQGKGNVLGNSKSQTPAPSSEVVLDSKRQVEKEETNEIQVVNEEPQRDRLPQEPGREQVVEDRPVGGRGFGGAGELGQTPQVQAALSVSQENPEMEGPERDQLVIPDGQEEEQEAAGEGRNQQKLRGEDDYNMDENEAESETDKQAALAGNDRNIDVFNVEDQKRDTINLLDQREKRNHTL
